Values of other authors, collected in publication PMC4434180.

Biological target: PriL (p58) NTD (Homo sapiens) (UniProt P49643)
Sequence of UniProt P49643 (P49643 1-253): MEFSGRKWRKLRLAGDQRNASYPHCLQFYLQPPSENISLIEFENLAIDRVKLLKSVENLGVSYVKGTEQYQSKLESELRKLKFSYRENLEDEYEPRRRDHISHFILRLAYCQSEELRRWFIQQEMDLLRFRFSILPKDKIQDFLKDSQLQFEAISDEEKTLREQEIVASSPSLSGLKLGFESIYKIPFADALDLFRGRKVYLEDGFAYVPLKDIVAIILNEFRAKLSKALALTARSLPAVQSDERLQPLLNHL

- Kd: 0.46 nM
Substance: PriS (p49) (from UniProt P49642)
